Legend:
TtCsm6 = molecular target: T1, TtCsm6 (Thermus thermophilus, UniProt Q53W17); assay: crystal structure […] Å (co-crystallised with cA4); type: binding; conditions: post-cleavage state; two A2>P across the CARF dimer interface; pH 8.5, Mg2+ in crystal
T1 construct: gene csm6; synthesized gene, N-terminal 6xHis tag removed with PreScission protease; expressed in E. coli Rosetta (DE3); homodimer; CARF-HTH-HEPN
T1 sequence (Q53W17 1-464): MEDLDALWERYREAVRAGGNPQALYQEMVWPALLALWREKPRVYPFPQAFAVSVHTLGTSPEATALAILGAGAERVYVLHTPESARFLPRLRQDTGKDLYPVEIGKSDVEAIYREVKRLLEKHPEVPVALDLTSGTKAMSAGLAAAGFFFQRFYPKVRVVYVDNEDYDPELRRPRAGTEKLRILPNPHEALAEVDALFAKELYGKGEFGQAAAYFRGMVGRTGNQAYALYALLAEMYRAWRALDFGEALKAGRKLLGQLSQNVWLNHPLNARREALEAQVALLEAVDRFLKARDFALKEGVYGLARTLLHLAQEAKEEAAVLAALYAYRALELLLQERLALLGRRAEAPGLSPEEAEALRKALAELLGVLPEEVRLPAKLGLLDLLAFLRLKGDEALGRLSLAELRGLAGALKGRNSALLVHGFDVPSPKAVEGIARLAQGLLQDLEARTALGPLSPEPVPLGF

[1] = molecular target: the molecule itself; assay: crystal structure; TtCsm6 (12 mg/mL) pre-incubated with cA4 1:1.2 for 3 h at room temperature; hanging drop, 25 °C; post-cleavage state with two A2>P bound; homodimer
[2] = molecular target: the molecule itself; assay: crystal structure; TtCsm6 Y161A (10 mg/ml) pre-incubated with cA4 1:1.2 at 4 °C for 30 min; hanging drop, 25 °C; pre-cleavage state with cA4 bound; homodimer
[3] = molecular target: the molecule itself; assay: crystal structure; TtCsm6 K137A (13 mg/mL) alone; hanging drop, 25 °C; apo state, no metal ion in the HEPN domain; homodimer

In the case of Nc1ncnc2c1ncn2[C@@H]1O[C@H](CO)[C@@H](OP(=O)(O)OC[C@H]2O[C@@H](n3cnc4c(N)ncnc43)[C@@H]3OP(=O)(O)O[C@@H]32)[C@H]1O [A2 > P], the “crystal structure 1.81 Å (co-crystallised with cA4)” value (TtCsm6) is reported as “cA4 in the CARF domain was cleaved into two A2 > P molecules”.

B1: Thermus thermophilus (Tt) Csm6, wild type (enzyme)
chain: MEDLDALWERYREAVRAGGNPQALYQEMVWPALLALWREKPRVYPFPQAFAVSVHTLGTSPEATALAILGAGAERVYVLHTPESARFLPRLRQDTGKDLYPVEIGKSDVEAIYREVKRLLEKHPEVPVALDLTSGTKAMSAGLAAAGFFFQRFYPKVRVVYVDNEDYDPELRRPRAGTEKLRILPNPHEALAEVDALFAKELYGKGEFGQAAAYFRGMVGRTGNQAYALYALLAEMYRAWRALDFGEALKAGRKLLGQLSQNVWLNHPLNARREALEAQVALLEAVDRFLKARDFALKEGVYGLARTLLHLAQEAKEEAAVLAALYAYRALELLLQERLALLGRRAEAPGLSPEEAEALRKALAELLGVLPEEVRLPAKLGLLDLLAFLRLKGDEALGRLSLAELRGLAGALKGRNSALLVHGFDVPSPKAVEGIARLAQGLLQDLEARTALGPLSPEPVPLGF
notes: Csm6 of Thermus thermophilus, GenBank ID 81626039; synthesized cDNA in a modified pET vector; Crystallised after pre-incubation with cA4, which was cleaved to two A2>P in the crystal (post-cleavage state); Homodimer in the crystal; also called WT; source: E. coli Rosetta (DE3), purified (Ni-NTA, 15Q, Superdex 200); not shown: His6, N-terminal, cleaved
B1: binds [1].

B2: TtCsm6 Y161A mutant (enzyme, Thermus thermophilus)
chain: MEDLDALWERYREAVRAGGNPQALYQEMVWPALLALWREKPRVYPFPQAFAVSVHTLGTSPEATALAILGAGAERVYVLHTPESARFLPRLRQDTGKDLYPVEIGKSDVEAIYREVKRLLEKHPEVPVALDLTSGTKAMSAGLAAAGFFFQRFYPKVRVVAVDNEDYDPELRRPRAGTEKLRILPNPHEALAEVDALFAKELYGKGEFGQAAAYFRGMVGRTGNQAYALYALLAEMYRAWRALDFGEALKAGRKLLGQLSQNVWLNHPLNARREALEAQVALLEAVDRFLKARDFALKEGVYGLARTLLHLAQEAKEEAAVLAALYAYRALELLLQERLALLGRRAEAPGLSPEEAEALRKALAELLGVLPEEVRLPAKLGLLDLLAFLRLKGDEALGRLSLAELRGLAGALKGRNSALLVHGFDVPSPKAVEGIARLAQGLLQDLEARTALGPLSPEPVPLGF
notes: Csm6 of Thermus thermophilus, GenBank ID 81626039, with Y161A; Crystallised with uncleaved cA4 (pre-cleavage state); Homodimer in the crystal; source: E. coli Rosetta (DE3), purified (Ni-NTA, 15Q, Superdex 200); not shown: His6, N-terminal, cleaved
B2: binds [2].

B3: TtCsm6 K137A mutant (enzyme, Thermus thermophilus)
chain: MEDLDALWERYREAVRAGGNPQALYQEMVWPALLALWREKPRVYPFPQAFAVSVHTLGTSPEATALAILGAGAERVYVLHTPESARFLPRLRQDTGKDLYPVEIGKSDVEAIYREVKRLLEKHPEVPVALDLTSGTAAMSAGLAAAGFFFQRFYPKVRVVYVDNEDYDPELRRPRAGTEKLRILPNPHEALAEVDALFAKELYGKGEFGQAAAYFRGMVGRTGNQAYALYALLAEMYRAWRALDFGEALKAGRKLLGQLSQNVWLNHPLNARREALEAQVALLEAVDRFLKARDFALKEGVYGLARTLLHLAQEAKEEAAVLAALYAYRALELLLQERLALLGRRAEAPGLSPEEAEALRKALAELLGVLPEEVRLPAKLGLLDLLAFLRLKGDEALGRLSLAELRGLAGALKGRNSALLVHGFDVPSPKAVEGIARLAQGLLQDLEARTALGPLSPEPVPLGF
notes: Csm6 of Thermus thermophilus, GenBank ID 81626039, with K137A; Homodimer in the crystal; also called apo-TtCsm6 (Ni-free structure); source: E. coli Rosetta (DE3), purified (Ni-NTA, 15Q, Superdex 200); not shown: His6, N-terminal, cleaved
B3: binds [3].
